Reference: PMC4414810 (ACS chemical biology, 2015)
Where no end group is shown, it is not given here.

Legend:
[1] = biological target: T1, HalM2 (haloduracin lanthipeptide synthetase) (Bacillus halodurans C-125); assay: fluorescence polarisation
[2] = biological target: T1, HalM2 (haloduracin lanthipeptide …); assay: fluorescence polarisation; remark: listed apart in the source

| Binder | Kd [1] [µM] | IC50 [2] [µM] | Ki [2] [µM] |
| --- | --- | --- | --- |
| MVNSKDLRNPEFRKAQGLQFVDEVNEKELSSLAGSGDIEGR (also: 5-FAM on short synthetic peptide ligated to introduced N-terminal Cys) [fluorescein-labeled HalA2 leader peptide] | 3.7 ± 1.3 |  |  |
| MTNLLKEWKMPLERTHNNSNPAGDIFQELEDQDILAGIEGR [HalA1 leader peptide] |  | 4.1 ± 1.1 | 4.1 ± 1.1 |
